# Laboratory results from publication doi:10.1101/2023.12.24.573241.
# Key:
# [1] = molecular target: Taxol-stabilized microtubules polymerized from pig brain tubulin, labeled with biotin and AZDye647 (pig) (UniProt P02550); assay: TIRF single-molecule motility assay
# [2] = molecular target: DmUNC-104^bris (full-length DmUNC-104 R562H, C-terminal sfGFP and 2xStrep-tag II) (Drosophila melanogaster) (UniProt A1ZAJ2); assay: mass photometry
# Sequence of UniProt P02550 (P02550 whole entry): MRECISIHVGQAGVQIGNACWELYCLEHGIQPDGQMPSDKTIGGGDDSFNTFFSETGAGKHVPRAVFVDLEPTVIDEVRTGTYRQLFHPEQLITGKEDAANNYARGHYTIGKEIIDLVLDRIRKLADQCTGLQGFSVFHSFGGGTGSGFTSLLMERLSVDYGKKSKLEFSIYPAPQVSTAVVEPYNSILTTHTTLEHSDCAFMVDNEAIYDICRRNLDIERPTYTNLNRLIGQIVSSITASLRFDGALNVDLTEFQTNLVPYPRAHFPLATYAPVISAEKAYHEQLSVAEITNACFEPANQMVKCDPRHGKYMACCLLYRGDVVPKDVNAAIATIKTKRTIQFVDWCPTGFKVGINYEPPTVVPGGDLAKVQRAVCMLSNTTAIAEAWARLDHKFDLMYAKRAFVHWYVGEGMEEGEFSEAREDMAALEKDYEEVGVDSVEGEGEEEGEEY
substance,measurement,setting,value
"DmUNC-104^bris (full-length DmUNC-104 R562H, C-terminal sfGFP and 2xStrep-tag II) (from UniProt A1ZAJ2 1-1670) (natural protein)",landing rate (median) (molecules/µm/s),[1],0.034
same,landing rate of motile motors (median) (molecules/µm/s),[1],0.015
same,percent of particles as dimer,[2],71%
same,stoichiometry N,[2],2
